The results in this text go back to IntAct's records for PubMed 8922390.

For one test, the target named is fak1_chick PTK2 (UniProt Q00944).
fak1_chick PTK2, sequence (Q00944 whole entry): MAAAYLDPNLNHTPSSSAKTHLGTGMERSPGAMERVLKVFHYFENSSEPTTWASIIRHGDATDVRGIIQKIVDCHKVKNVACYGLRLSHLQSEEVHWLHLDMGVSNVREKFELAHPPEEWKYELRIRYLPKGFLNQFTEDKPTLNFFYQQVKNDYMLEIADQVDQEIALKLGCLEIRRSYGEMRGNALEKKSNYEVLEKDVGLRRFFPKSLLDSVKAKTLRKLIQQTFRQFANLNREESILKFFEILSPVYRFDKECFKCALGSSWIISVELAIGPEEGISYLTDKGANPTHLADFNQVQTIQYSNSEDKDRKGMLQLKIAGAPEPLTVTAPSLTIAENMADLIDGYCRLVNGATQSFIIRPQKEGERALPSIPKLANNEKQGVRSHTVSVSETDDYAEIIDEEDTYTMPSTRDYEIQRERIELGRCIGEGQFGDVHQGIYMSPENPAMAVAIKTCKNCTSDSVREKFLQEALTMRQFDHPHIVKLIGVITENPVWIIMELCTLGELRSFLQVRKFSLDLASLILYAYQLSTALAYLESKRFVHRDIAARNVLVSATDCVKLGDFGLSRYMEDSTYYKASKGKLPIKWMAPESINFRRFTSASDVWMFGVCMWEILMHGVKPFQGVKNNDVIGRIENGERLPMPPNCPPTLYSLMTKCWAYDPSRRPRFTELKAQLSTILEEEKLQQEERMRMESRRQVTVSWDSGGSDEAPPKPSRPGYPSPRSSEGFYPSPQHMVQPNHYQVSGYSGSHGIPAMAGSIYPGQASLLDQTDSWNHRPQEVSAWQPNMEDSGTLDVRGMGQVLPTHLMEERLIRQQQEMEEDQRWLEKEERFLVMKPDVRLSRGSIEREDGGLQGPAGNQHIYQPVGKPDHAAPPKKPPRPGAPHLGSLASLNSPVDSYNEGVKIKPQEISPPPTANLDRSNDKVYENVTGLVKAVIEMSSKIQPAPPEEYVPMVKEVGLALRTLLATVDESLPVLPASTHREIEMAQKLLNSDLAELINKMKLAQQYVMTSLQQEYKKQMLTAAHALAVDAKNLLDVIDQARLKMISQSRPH

Paxillin (Gallus gallus (Chicken)), P49024 D146N;R147Q, sequence (P49024 whole entry D146N/R147Q): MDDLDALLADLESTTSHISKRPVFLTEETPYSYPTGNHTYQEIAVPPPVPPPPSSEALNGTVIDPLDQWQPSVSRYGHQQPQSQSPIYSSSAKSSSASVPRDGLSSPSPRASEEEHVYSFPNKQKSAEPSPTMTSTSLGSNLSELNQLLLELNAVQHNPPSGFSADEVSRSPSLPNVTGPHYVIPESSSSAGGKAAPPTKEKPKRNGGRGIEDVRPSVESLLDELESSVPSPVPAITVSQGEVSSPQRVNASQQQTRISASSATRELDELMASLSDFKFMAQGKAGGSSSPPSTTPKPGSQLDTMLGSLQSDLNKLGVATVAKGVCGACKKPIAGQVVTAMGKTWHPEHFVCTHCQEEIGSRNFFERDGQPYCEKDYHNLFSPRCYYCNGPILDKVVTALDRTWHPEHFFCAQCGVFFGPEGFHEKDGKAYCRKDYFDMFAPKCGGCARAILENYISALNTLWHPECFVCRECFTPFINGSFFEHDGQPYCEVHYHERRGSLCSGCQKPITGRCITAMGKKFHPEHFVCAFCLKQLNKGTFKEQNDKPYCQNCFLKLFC
VCL, P12003-1, sequence (P12003 other isoform, or with tags, fused parts or gaps): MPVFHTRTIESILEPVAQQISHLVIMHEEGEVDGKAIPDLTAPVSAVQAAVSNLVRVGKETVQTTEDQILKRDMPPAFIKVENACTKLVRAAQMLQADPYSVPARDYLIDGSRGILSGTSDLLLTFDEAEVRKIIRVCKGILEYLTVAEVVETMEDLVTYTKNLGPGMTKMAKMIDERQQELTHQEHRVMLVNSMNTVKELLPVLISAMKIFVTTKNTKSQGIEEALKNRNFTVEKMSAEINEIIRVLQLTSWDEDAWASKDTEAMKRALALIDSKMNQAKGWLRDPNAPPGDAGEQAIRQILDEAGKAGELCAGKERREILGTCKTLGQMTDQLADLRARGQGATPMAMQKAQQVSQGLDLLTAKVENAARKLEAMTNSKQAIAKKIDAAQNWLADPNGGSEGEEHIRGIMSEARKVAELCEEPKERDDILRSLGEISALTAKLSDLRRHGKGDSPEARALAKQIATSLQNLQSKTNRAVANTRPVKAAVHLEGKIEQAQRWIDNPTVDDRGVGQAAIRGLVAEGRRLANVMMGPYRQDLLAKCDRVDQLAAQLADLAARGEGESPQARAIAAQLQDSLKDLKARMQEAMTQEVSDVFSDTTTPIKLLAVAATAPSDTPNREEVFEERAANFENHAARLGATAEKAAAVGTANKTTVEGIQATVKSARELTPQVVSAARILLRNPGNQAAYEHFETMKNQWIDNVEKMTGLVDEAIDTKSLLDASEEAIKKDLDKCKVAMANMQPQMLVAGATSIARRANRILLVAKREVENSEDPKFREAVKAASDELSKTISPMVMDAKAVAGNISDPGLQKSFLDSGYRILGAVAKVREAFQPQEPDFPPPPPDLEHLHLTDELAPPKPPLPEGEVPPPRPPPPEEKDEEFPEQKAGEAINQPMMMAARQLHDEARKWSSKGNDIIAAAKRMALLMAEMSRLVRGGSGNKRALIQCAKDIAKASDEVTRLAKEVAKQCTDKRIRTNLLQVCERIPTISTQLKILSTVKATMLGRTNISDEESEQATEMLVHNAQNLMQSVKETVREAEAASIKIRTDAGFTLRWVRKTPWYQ
Paxillin (Gallus gallus (Chicken)), P49024 E151Q, sequence (P49024 whole entry E151Q): as the sequence (P49024 whole entry D146N/R147Q) above, with N146D, Q147R, E151Q counted along it

Take “Paxillin (Gallus gallus (Chicken)), P49024 E151Q”: the “effect of a mutation on the interaction” value in the test with VCL, P12003-1 was “decreasing interaction”.
In the case of “Paxillin (Gallus gallus (Chicken)), P49024 D146N;R147Q”, the “effect of a mutation on the interaction” value in the test with VCL, P12003-1 is recorded as “decreasing interaction”; with fak1_chick PTK2, “decreasing interaction”.
